Consider 15 molecules from publication PMC11090907 (2024).

T1: ALFA tag-human Fc
T1 chain: SRLEEELRRRLTE

T2: RLuc8-L5-ALFA-tag
T2 chain: SRLEEELRRRLTE

T3: ALFA tag-human Fc
T3 chain: SRLEEELRRRLTE

B1: sdAb ALFA SERR-TEV-His (VHH)
VHH: EVQLQESGGGLVQPGGSLRLSCTASGVTISALNAMAMGWYRQAPGERRVMVAAVASGGNAMYDESVQGRFTVTRDFTNKMVSLQMDNLKPEDTAVYYCHVLEDRVDSFHDYWGQGTQVTVSS
B2: sdAb ALFA SER-TEV-His (VHH)
VHH: B1 VHH with D63R
B3: sdAb ALFA WT-TEV-His (VHH)
VHH: B1 VHH with A55S, S56E, G57R, D63R
B4: sdAb ALFA SE-TEV-His (VHH)
VHH: B1 VHH with G57R, D63R
B5: sdAb ALFA E-TEV-His (VHH)
VHH: B1 VHH with A55S, G57R, D63R
B6: GFP2-L5-sdAbALFA WT S57A; E58S; R59G; R65D; D112V (protein)
chain: B1 VHH with D110V
B7: GFP2-L5-sdAbALFA WT S57A; E58S; R59G; R65D (protein)
chain: B1 VHH
B8: GFP2-L5-sdAbALFA WT S57A; E58S; R59G (protein)
chain: B1 VHH with D63R
B9: GFP2-L5-sdAbALFA WT S57A; E58S (protein)
chain: B1 VHH with G57R, D63R
B10: GFP2-L5-sdAbALFA WT E58S (protein)
chain: B1 VHH with A55S, G57R, D63R
B11: sdAb ALFA WT-TEV-His S57A; E58S; R59G (protein)
chain: B1 VHH with D63R
B12: sdAb ALFA WT-TEV-His E58S (protein)
chain: B1 VHH with A55S, G57R, D63R
B13: sdAb ALFA WT-TEV-His S57A; E58S; R59G; R65D (protein)
chain: B1 VHH
B14: sdAb ALFA WT-TEV-His S57A; E58S (protein)
chain: B1 VHH with G57R, D63R
B15: sdAb ALFA WT-TEV-His S57A; E58S; R59G; R65D; D112V (protein)
chain: B1 VHH with D110V

Substitutions are numbered along the chain they refer to. Names may count otherwise.

One assay addresses T1, ALFA tag-human Fc. Put plainly: SPR.
Settings: not given
On to B1, for which the koff is 0.026 s⁻¹.

On to B2, for which the koff worked out at 0.011 s⁻¹.

The molecule B3 had a koff of 2.7e-05 s⁻¹.

For the molecule B4, the koff came out at 0.0073 s⁻¹.

B5 yielded a koff of 0.0039 s⁻¹.

Another assay has as its target T1, ALFA tag-human Fc. Put plainly: SPR.
Settings: not given
The source holds these as a separate data set.
With B3, binding was put at a Kd of 0.005 nM.

A further assay deals with T2, RLuc8-L5-ALFA-tag. Kind of assay: BRET donor saturation assay. The note with it: chain shown with the change; HEK293T cells; 37°C; Acceptor/Donor ratio 20; parent: est. 26; read off a plot.
With B6, the response is 2 BRET ratio.

For B7, the response amounted to 9.5 BRET ratio.

The same assay, now with this note: chain shown with the change; HEK293T cells; 37°C; parent: 1.4 ± 0.09.
For the molecule B6, the other: BRET50 turned out to be 12.4.

On to B8, for which the other: BRET50 worked out at 5.2.

For the molecule B9, the other: BRET50 was 6.2.

In the case of B7, the other: BRET50 was 9.3.

With B10, the other: BRET50 is 2.2.

The same assay, now with this note: chain shown with the change; HEK293T cells; 37°C; parent: 28.4 ± 0.37.
For the molecule B6, the other: BRETmax came out at 3.3.

For the molecule B8, the other: BRETmax is 26.4.

B9: the other: BRETmax came to 26.7.

With B7, the other: BRETmax was found to be 14.

As for B10, the other: BRETmax is 28.1.

The target of a further assay is T3, ALFA tag-human Fc. Put plainly: SPR. As to conditions: chain shown with the change; room temperature; parent: 5.0 ± 0.07 pM.
Regarding B11, the Kd is 2.4 nM.

In the case of B12, the Kd is 0.8 nM.

On to B13, for which the Kd is 1130 nM.

With B14, the Kd was 1.7 nM.

Still in this assay, the particulars now being: chain shown with the change; sdAb at 50 nM; parent: est. 61; read off a plot.
Turning to B11, the response (Response Unit) is 57.

For B15, the response (Response Unit) turned out to be 0.

As to B13, the response (Response Unit) turned out to be 3.8.
